Experimental data reported in patent US20250313644A1.

Key:
[1] = target: human TL1A (HuTL1A) (human) (UniProt O95150)
[2] = target: human TL1A (HuTL1A) (human) (UniProt O95150); remark: listed apart in the source
FASL [3] = target: FASL (UniProt P48023); assay: ELISA, coated FASL, Ab 25 nM
LT-α [4] = target: T1, LT-α (UniProt P01374); assay: ELISA, coated LT-α, Ab 25 nM
T1 sequence (looked up): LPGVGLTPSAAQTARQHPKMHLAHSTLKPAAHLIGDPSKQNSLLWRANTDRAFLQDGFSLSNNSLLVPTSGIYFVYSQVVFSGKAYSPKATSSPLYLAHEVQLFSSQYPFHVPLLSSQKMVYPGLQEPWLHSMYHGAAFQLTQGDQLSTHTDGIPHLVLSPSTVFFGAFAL

FASL [5] = target: FASL (UniProt P48023); assay: ELISA, coated FASL, Ab 100 nM
LIGHT [6] = target: LIGHT (UniProt O43557); assay: ELISA, coated LIGHT, Ab 25 nM
LT-α [7] = target: T1, LT-α; assay: ELISA, coated LT-α, Ab 100 nM
TNFα [8] = target: TNFα (UniProt P01375); assay: ELISA, coated TNF-α, Ab 25 nM
FASL [9] = target: FASL (UniProt P48023); assay: ELISA, coated FASL, Ab 6.25 nM
LIGHT [10] = target: LIGHT (UniProt O43557); assay: ELISA, coated LIGHT, Ab 100 nM
LT-α [11] = target: T1, LT-α; assay: ELISA, coated LT-α, Ab 6.25 nM
TNFα [12] = target: TNFα (UniProt P01375); assay: ELISA, coated TNF-α, Ab 100 nM
FASL [13] = target: FASL (UniProt P48023); assay: ELISA, coated FASL, Ab 0.391 nM
FASL [14] = target: FASL (UniProt P48023); assay: ELISA, coated FASL, Ab 1.563 nM
LIGHT [15] = target: LIGHT (UniProt O43557); assay: ELISA, coated LIGHT, Ab 6.25 nM
LT-α [16] = target: T1, LT-α; assay: ELISA, coated LT-α, Ab 0.391 nM
LT-α [17] = target: T1, LT-α; assay: ELISA, coated LT-α, Ab 1.563 nM
TNFα [18] = target: TNFα (UniProt P01375); assay: ELISA, coated TNF-α, Ab 6.25 nM
LIGHT [19] = target: LIGHT (UniProt O43557); assay: ELISA, coated LIGHT, Ab 0.391 nM
LIGHT [20] = target: LIGHT (UniProt O43557); assay: ELISA, coated LIGHT, Ab 1.563 nM
TNFα [21] = target: TNFα (UniProt P01375); assay: ELISA, coated TNF-α, Ab 0.391 nM
TNFα [22] = target: TNFα (UniProt P01375); assay: ELISA, coated TNF-α, Ab 1.563 nM
FASL [23] = target: FASL (UniProt P48023); assay: ELISA, coated FASL, Ab 0.000 nM (blank)
LT-α [24] = target: T1, LT-α; assay: ELISA, coated LT-α, Ab 0.000 nM (blank)
LIGHT [25] = target: LIGHT (UniProt O43557); assay: ELISA, coated LIGHT, Ab 0.000 nM (blank)
TNFα [26] = target: TNFα (UniProt P01375); assay: ELISA, coated TNF-α, Ab 0.000 nM (blank)
[27] = target: human TL1A (HuTL1A) (human) (UniProt O95150); assay: DLS, antigen and antibody mixed in equal moles
[28] = target: human TL1A (HuTL1A) (human) (UniProt O95150); assay: ELISA: biotin-HuTL1A on streptavidin plate, antibody diluted at pH 5.8, HRP-anti-human Fc, OD450
[29] = target: human TL1A (HuTL1A) (human) (UniProt O95150); assay: ELISA: biotin-HuTL1A on streptavidin plate, antibody diluted at pH 7.4, HRP-anti-human Fc, OD450
[30] = target: human TL1A (HuTL1A) (human) (UniProt O95150); assay: competition ELISA: antibody dilution mixed 1:1 with Biotin-TL1A, added to coated DcR3 (1 µg/mL), Streptavidin-HRP, OD450; blocked partner of TL1A: DcR3

FASL, sequence (P48023 134-281 limits assumed): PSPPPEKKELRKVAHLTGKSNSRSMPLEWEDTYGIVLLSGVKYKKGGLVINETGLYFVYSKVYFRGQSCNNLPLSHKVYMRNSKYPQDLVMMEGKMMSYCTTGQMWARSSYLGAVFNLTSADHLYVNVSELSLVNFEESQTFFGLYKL
TNFα, sequence (P01375 77-233 limits assumed): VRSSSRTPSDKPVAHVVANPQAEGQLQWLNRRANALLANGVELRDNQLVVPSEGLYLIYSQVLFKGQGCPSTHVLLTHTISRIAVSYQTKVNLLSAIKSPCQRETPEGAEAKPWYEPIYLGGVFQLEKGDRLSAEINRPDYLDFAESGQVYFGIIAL
BM1 antibody (Pfizer/Roivant TL1A monoclonal antibody RVT-3101), sequence (VH): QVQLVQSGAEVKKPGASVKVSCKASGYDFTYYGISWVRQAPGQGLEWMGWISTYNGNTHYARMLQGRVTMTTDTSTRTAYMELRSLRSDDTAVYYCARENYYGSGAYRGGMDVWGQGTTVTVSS
BM1 antibody (Pfizer/Roivant TL1A monoclonal antibody RVT-3101), sequence (VL): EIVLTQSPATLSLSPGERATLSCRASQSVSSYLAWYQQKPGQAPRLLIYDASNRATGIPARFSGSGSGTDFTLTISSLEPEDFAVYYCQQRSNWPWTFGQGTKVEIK
human TL1A (HuTL1A) (human), sequence (O95150 57-251 limits assumed): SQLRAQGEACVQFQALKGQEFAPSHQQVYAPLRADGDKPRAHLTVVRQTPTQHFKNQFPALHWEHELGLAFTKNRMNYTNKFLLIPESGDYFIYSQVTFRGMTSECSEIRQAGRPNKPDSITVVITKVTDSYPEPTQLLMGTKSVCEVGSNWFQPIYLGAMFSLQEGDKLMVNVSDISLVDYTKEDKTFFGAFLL
LIGHT, sequence (O43557 74-240 limits assumed): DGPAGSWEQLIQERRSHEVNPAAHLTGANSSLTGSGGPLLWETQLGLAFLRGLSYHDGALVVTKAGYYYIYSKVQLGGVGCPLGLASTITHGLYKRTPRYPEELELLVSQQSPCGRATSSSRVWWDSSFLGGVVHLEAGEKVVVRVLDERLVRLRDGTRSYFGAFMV

IC50 (read off the curve); SEAP reporter in HEK293T/DR3-NFκB cells with soluble TL1A, OD655 [1]: 2 nM
IC50 (read off the curve); IFN-γ of human T cells with IL-12, IL-18 and exogenous human TL1A [2]: 0.5 nM
OD450 nm (FASL [3]): 0.0609
OD450 nm (LT-α [4]): 0.0845
OD450 nm (FASL [5]): 0.0855
OD450 nm (LIGHT [6]): 0.0916
OD450 nm (LT-α [7]): 0.0823
OD450 nm (TNFα [8]): 0.0601
OD450 nm (FASL [9]): 0.0513
OD450 nm (LIGHT [10]): 0.0996
OD450 nm (LT-α [11]): 0.0909
OD450 nm (TNFα [12]): 0.0815
OD450 nm (FASL [13]): 0.051
OD450 nm (FASL [14]): 0.0518
OD450 nm (LIGHT [15]): 0.0903
OD450 nm (LT-α [16]): 0.0978
OD450 nm (LT-α [17]): 0.095
OD450 nm (TNFα [18]): 0.0511
OD450 nm (LIGHT [19]): 0.0834
OD450 nm (LIGHT [20]): 0.0887
OD450 nm (TNFα [21]): 0.0539
OD450 nm (TNFα [22]): 0.0523
OD450 nm (FASL [23]): 0.0544
OD450 nm (LT-α [24]): 0.0972
OD450 nm (LIGHT [25]): 0.0644
OD450 nm (TNFα [26]): 0.0666
Ave Z-dia (nm) of the antigen-antibody complex [27]: 85.7 nm
EC50 (read off the curve) [28]: 0.1 nM
EC50 (read off the curve) [29]: 0.1 nM
IC50 (read off the curve) [30]: 0.2 µg/mL
Substance: BM1 antibody (Pfizer/Roivant TL1A monoclonal antibody RVT-3101)
